Experimental findings from patent US20220073617A1 (Five Prime, published 2022) are described below.

The labels stand for the following.
B1: P1-065320 (41F11_VH_L96EF100aG VK_A64G) (antibody, V domains shown)
VH: QVQLVESGGGLVKPGGSLRLSCAASGFTFSDYYMSWIRQAPGKGLEWVSYISNSGSPIYYADSVKGRFTISRDNAKNSLYLQMNSLRAEDTAVYYCARDEPGWYGDLWGRGTLVTVSS
VL: EIVLTQSPATLSLSPGERATLSCRASQSVSSYLAWYQQKPGQAPRLLIYDASNRATGIPARFSGSGSGTDFTLTISSLEPEDFAVYYCQQRNNWPRTFGQGTKVEIK
B2: P1-065312 (41F11_VH_F27E VK_A64G) (antibody, V domains shown)
VH: B1 VH with F27E, E100L, G105F
VL: B1 VL
notes: Kabat positions; also called P1-065312-1
B3: P1-065319 (41F11_VH_F100aG VK_A64G) (antibody, V domains shown)
VH: B1 VH with E100L
VL: B1 VL
notes: Kabat positions; also called P1-065319-1
B4: P1-065332 (41F11_VH_T28P/Y50W/S55E/A60H/Y100E VK_A64G) (antibody, V domains shown)
VH: B1 VH with T28P, Y50W, S56E, A61H, E100L, Y104E, G105F
VL: B1 VL
notes: Kabat positions; also called P1-065332-1
B5: P1-065318 (41F11_VH_L96E VK A64G) (antibody, V domains shown)
VH: B1 VH with G105F
VL: B1 VL
notes: Kabat positions; also called P1-065318-1
B6: P1-064540 (41F11_VH_T28P/Y50W/S55E/A60H/Y100E) (antibody, V domains shown)
VH: B1 VH with T28P, Y50W, S56E, A61H, E100L, Y104E, G105F
VL: B1 VL with G64A
notes: Kabat positions; also called P1-064540-1
B7: P1-065329 (41F11_VH_D31E/S35Y/Y50W/S55E/A60H/Y100E/F100aG VK_A64G) (antibody, V domains shown)
VH: B1 VH with D31E, S35Y, Y50W, S56E, A61H, E100L, Y104E
VL: B1 VL
notes: Kabat positions; also called P1-065329-1
B8: P1-065316 (41F11_VH_A60H VK A64G) (antibody, V domains shown)
VH: B1 VH with A61H, E100L, G105F
VL: B1 VL
notes: Kabat positions; also called P1-065316-1
B9: P1-065325 (41F11_VH_D31E/Y50W/S55E/A60H/Y100E VK_A64G) (antibody, V domains shown)
VH: B1 VH with D31E, Y50W, S56E, A61H, E100L, Y104E, G105F
VL: B1 VL
notes: Kabat positions; also called P1-065325-1
B10: P1-063001 (41F11_LC_Mutant: V29D/A64G/R91T) (antibody, V domains shown)
VH: B1 VH with E100L, G105F
VL: B1 VL with V29D, R91T
notes: also called P1-063001-5; P1-063001-6
B11: P1-063125 (41F11_HC_Mutant: T28P/Y50W/S55E/Y100E) (antibody, V domains shown)
VH: B1 VH with T28P, Y50W, S56E, E100L, Y104E, G105F
VL: B1 VL with G64A
notes: Kabat positions; also called P1-063125-5
B12: P1-063153 (41F11_HC_mutant: D31E/Y50W/S55E/Y100E) (antibody, V domains shown)
VH: B1 VH with D31E, Y50W, S56E, E100L, Y104E, G105F
VL: B1 VL with G64A
notes: Kabat positions; also called P1-063153-5
B13: P1-065064 (41F11_LC_Mutant: V29D/A64G/R91T) (antibody, V domains shown)
VH: B1 VH with E100L, G105F
VL: B1 VL with V29D, R91T
notes: Same printed description as P1-063001 under another ID; also called P1-065064-1

Changes are numbered by the printed parent chain. Names may count otherwise. “And” between values parts separate entries of the source, which are not always exact repeats. Equal values may be shown once.

T1 sequence (Q9H7M9 other isoform, or with tags, fused parts or gaps limits assumed): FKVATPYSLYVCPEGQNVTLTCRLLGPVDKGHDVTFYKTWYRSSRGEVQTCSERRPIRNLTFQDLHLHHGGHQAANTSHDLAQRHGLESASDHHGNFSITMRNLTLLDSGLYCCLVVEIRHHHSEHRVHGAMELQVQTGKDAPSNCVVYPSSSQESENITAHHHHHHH

The first assay has as its target T1, monovalent hVISTA-ECD (human VISTA extracellular domain with His tail) (human, UniProt Q9H7M9 33-193).
T1 construct: analyte flowed over captured antibody; also called huVISTA-His
Put plainly: SPR. The procedure: (§1) Binding of several preparations of each of the '029 progeny clones and of the parent '029 antibodies, formatted as IgG1.3 antibodies, to human VISTA at pH 6.0 and 7.4 was measured by Surface plasmon resonance (SPR). SPR analysis was performed to measure koff and KD binding affinity measurements for VISTA Abs at acidic and neutral pHs using a Biacore® T100 instrument (GE Healthcare). Protein A (ThermoFisher Scientific catalog #21181) was diluted to 20 ug/ml in 10 mM sodium acetate pH 4.5 and immobilized onto flow cells of a CM5 biosensor following the manufacturer's amine coupling protocol (GE Healthcare), targeting 2,000 RU immobilization density of Protein A per flow cell. SPR experiments were conducted at 37° C. using PBST (137 mM sodium chloride, 2.7 mM potassium chloride, 10 mM phosphate buffer, 0.05% Tween® 20) running buffer at pH 7.4 and 6.0. Antibodies were diluted to 25 nM in PBST pH 7.4, and were captured across active biosensor flow cells at 5 ul/min for 60 seconds. […] Two 15 second injections of 10 mM glycine pH 1.5 were used to regenerate the Protein A capture surface between assay cycles. Rate constants ka (kₒₙ) and kd (koff) were derived from reference flow cell and 0 nM blank-subtracted sensorgrams, and were fit to a 1:1 binding model in Biacore® T200 Evaluation Software v.2.0. The affinity constant, KD was calculated as the ratio of rate constants koff/kₒₙ for each VISTA antibody. […]
With B1, the “KD ratio (pH 7.4/pH 6.0)” value was 45.5.
The same measure, in the same setting: with B2 the figure was 0.3.
Turning to B3, the “KD ratio (pH 7.4/pH 6.0)” value worked out at 0.85.
On the same count and under the same terms, under B4 stands 1.11; under B5, 4.91.
On the same count and under the same terms, with B6 the figure was 1.06; with B7, 40.2; with B8, 0.28.
Still for that read-out and setting: with B9 the figure was 1.42.

A further assay deals with T1, monovalent hVISTA-ECD (human VISTA …). Put plainly: SPR. This is another data set of the same source. The procedure:
(§2) Binding of several preparations of each of the '029 progeny clones and of the parent '029 antibodies, formatted as IgG1.3 antibodies, to human VISTA at pH 6.0 and 7.4 was measured by Surface plasmon resonance (SPR). SPR analysis was performed to measure koff and KD binding affinity measurements for VISTA Abs at acidic and neutral pHs using a Biacore® T100 instrument (GE Healthcare). Protein A (ThermoFisher Scientific catalog #21181) was diluted to 20 ug/ml in 10 mM sodium acetate pH 4.5 and immobilized onto flow cells of a CM5 biosensor following the manufacturer's amine coupling protocol (GE Healthcare), targeting 2,000 RU immobilization density of Protein A per flow cell. SPR experiments were conducted at 37° C. using PBST (137 mM sodium chloride, 2.7 mM potassium chloride, 10 mM phosphate buffer, 0.05% Tween® 20) running buffer at pH 7.4 and 6.0. Antibodies were diluted to 25 nM in PBST pH 7.4, and were captured across active biosensor flow cells at 5 ul/min for 60 seconds. […] Two 15 second injections of 10 mM glycine pH 1.5 were used to regenerate the Protein A capture surface between assay cycles. Rate constants ka (kₒₙ) and kd (koff) were derived from reference flow cell and 0 nM blank-subtracted sensorgrams, and were fit to a 1:1 binding model in Biacore® T200 Evaluation Software v.2.0. The affinity constant, KD was calculated as the ratio of rate constants koff/kₒₙ for each VISTA antibody.
With B10, the “pH 6.0/7.4 KD” value is 2.7 and the “pH 6.0/7.4 kd” value amounted to 10.2.
In the same order, the values of B11 are 0.9 and 3.9.
The corresponding values for B12 are 0.8 and 3.9.
In the same order, the values of B13 are 3 and 11.2.

For another assay the target is unchanged. Put plainly: SPR, pH 6.0. How it is done:
as §1
As for B10, the dissociation constant (Kd) was 0.644 nM and 0.751 nM; the koff was 0.00168 s⁻¹ and 0.00171 s⁻¹; the on-rate (kon) is 2.61e+06 M⁻¹ s⁻¹ and 2.28e+06 M⁻¹ s⁻¹.
B1 yielded a Kd of 55.8 nM, a koff of 0.0387 s⁻¹ and a kon of 694000 M⁻¹ s⁻¹.
In the same order, the values of B2 are 22.3 nM, 0.0449 s⁻¹ and 2.01e+06 M⁻¹ s⁻¹.
The corresponding values for B3 are 29.1 nM, 0.0385 s⁻¹ and 1.32e+06 M⁻¹ s⁻¹.
For B4, the Kd came out at 0.409 nM, the koff was found to be 0.00221 s⁻¹ and the kon worked out at 5.41e+06 M⁻¹ s⁻¹.
For the molecule B11, the Kd is 0.356 nM and 0.435 nM; the koff was 0.00124 s⁻¹ and 0.0012 s⁻¹; the kon was 3.47e+06 M⁻¹ s⁻¹ and 2.77e+06 M⁻¹ s⁻¹.
Consider B12, for which the equilibrium dissociation constant (Kd) was 0.139 nM and 0.223 nM; the koff is 0.00114 s⁻¹ and 0.000909 s⁻¹; the on-rate constant (kon) was 8.19e+06 M⁻¹ s⁻¹ and 4.07e+06 M⁻¹ s⁻¹.
The molecule B5 displayed a dissociation constant (Kd) of 7.84 nM, a koff of 0.0154 s⁻¹ and a kon of 1.96e+06 M⁻¹ s⁻¹.
In the same order, the values of B6 are 0.268 nM, 0.00192 s⁻¹ and 7.16e+06 M⁻¹ s⁻¹.
With B7, the Kd amounted to 11.9 nM, the koff is 0.00791 s⁻¹ and the kon turned out to be 663000 M⁻¹ s⁻¹.
In the same order, the values of B8 are 14.5 nM, 0.0561 s⁻¹ and 3.86e+06 M⁻¹ s⁻¹.
In the same order, the values of B9 are 0.179 nM, 0.00143 s⁻¹ and 7.99e+06 M⁻¹ s⁻¹.

The target is the same in the next assay. Put plainly: SPR, pH 7.4. The procedure:
as §1
B10: the Kd is 0.665 nM and 0.737 nM; the koff was 0.00013 s⁻¹ and 0.00012 s⁻¹; the kon was 195000 M⁻¹ s⁻¹ and 163000 M⁻¹ s⁻¹.
Take B1: the affinity, expressed as Kd, was 2540 nM; the dissociation rate constant (koff) came out at 0.0352 s⁻¹; the kon worked out at 13800 M⁻¹ s⁻¹.
The corresponding values for B2 are 6.61 nM, 0.00131 s⁻¹ and 198000 M⁻¹ s⁻¹.
The molecule B3 gave a Kd of 24.6 nM, an off-rate (koff) of 0.00514 s⁻¹ and a kon of 209000 M⁻¹ s⁻¹.
The corresponding values for B4 are 0.456 nM, 0.000236 s⁻¹ and 517000 M⁻¹ s⁻¹.
Consider B11, for which the equilibrium dissociation constant (Kd) was 0.365 nM and 0.32 nM; the off-rate (koff) is 0.000178 s⁻¹ and 0.000141 s⁻¹; the kon was 488000 M⁻¹ s⁻¹ and 441000 M⁻¹ s⁻¹.
As to B12, the dissociation constant (Kd) was 0.101 nM and 0.0675 nM; the koff was 6.9e-05 s⁻¹ and 4.05e-05 s⁻¹; the kon was 685000 M⁻¹ s⁻¹ and 600000 M⁻¹ s⁻¹.
As to B5, binding was put at a Kd of 38.5 nM, the koff was found to be 0.0042 s⁻¹ and the kon was 109000 M⁻¹ s⁻¹.
On to B6, for which the dissociation constant Kd turned out to be 0.285 nM, the dissociation rate constant (koff) was found to be 0.000158 s⁻¹ and the on-rate constant (kon) came to 553000 M⁻¹ s⁻¹.
In the same order, the values of B7 are 478 nM, 0.000858 s⁻¹ and 1800 M⁻¹ s⁻¹.
In the same order, the values of B8 are 4.12 nM, 0.000995 s⁻¹ and 242000 M⁻¹ s⁻¹.
The corresponding values for B9 are 0.255 nM, 0.000158 s⁻¹ and 618000 M⁻¹ s⁻¹.

The target is the same in a further assay. Put plainly: SPR, pH 6.0. This is another data set of the same source. How it is done: as §2
Take B10: the affinity, expressed as Kd, was 1 nM; the “kd improvement vs parent” value was 81.7 fold; the off-rate (koff) was 0.0013 s⁻¹; the association rate constant (kon) was determined as 1.3e+06 M⁻¹ s⁻¹.
For B11, binding was put at a Kd of 0.25 nM, the “kd improvement vs parent” value turned out to be 136 fold, the off-rate (koff) was determined as 0.00079 s⁻¹ and the on-rate constant (kon) is 3.1e+06 M⁻¹ s⁻¹.
In the case of B12, the Kd is 0.13 nM, the “kd improvement vs parent” value stood at 233 fold, the off-rate constant (koff) stood at 0.00046 s⁻¹ and the kon came out at 3.6e+06 M⁻¹ s⁻¹.
In the same order, the values of B13 are 1.1 nM, 80.5 fold, 0.0013 s⁻¹ and 1.3e+06 M⁻¹ s⁻¹.

The target is the same in a further assay. Put plainly: SPR, pH 7.4. This is another data set of the same source. The procedure: as §2
Regarding B10, binding was characterised by a dissociation constant (Kd) of 0.38 nM, the “kd improvement vs parent” value stood at 6.8 fold, the off-rate constant (koff) was 0.00013 s⁻¹ and the kon turned out to be 340000 M⁻¹ s⁻¹.
In the same order, the values of B11 are 0.27 nM, 4.3 fold, 0.0002 s⁻¹ and 770000 M⁻¹ s⁻¹.
The corresponding values for B12 are 0.15 nM, 7.4 fold, 0.00012 s⁻¹ and 780000 M⁻¹ s⁻¹.
In the same order, the values of B13 are 0.36 nM, 7.4 fold, 0.00012 s⁻¹ and 330000 M⁻¹ s⁻¹.
